Reference: PMC7642358 (Nature Communications, 2020)
Where a chain is given by its changes, count along the chain named.

Legend:
[1] = target: T1, SARS-CoV-2 spike receptor-binding domain (2019-nCoV RBD-SD1, residues 319–566) (SARS-CoV-2, UniProt P0DTC2)
[2] = target: T1, SARS-CoV-2 spike receptor-binding …; assay: thermal shift (nanoDSF); settings: both partners purified
[3] = target: T1, SARS-CoV-2 spike receptor-binding …; assay: BLI; settings: both partners purified

B1: 61 (VHH)
VHH: QVQLVESGGGLVQAGGSLRLSCAASGFPVQHEWMEWYRQAPGKEREWVAAITSYGYRTYYADSVKGRFTISRDNAKNTVYLQMNSLKPEDTAVYYCNVKDTGTYQAWYDYWGQGTQVTVS
B1: binds [1].

B2: 66 (VHH)
VHH: B1 VHH with V29E, Q30V, H31N, E32T, T101E, T103S, Y104Q, Q105S, A106W, W107A
B2: binds [1].

B3: sybody 23 (Sb23) (VHH)
VHH: QVQLVESGGGLVQAGGSLRLSCAASGFPVESENMHWYRQAPGKEREWVAAIYSTGGWTLYADSVKGRFTISRDNAKNTVYLQMNSLKPEDTAVYYCAVQVGYWYEGQGTQVTVS
notes: source: E. coli MC1061 F-, periplasmic extract, purified (Ni-NTA, desalted in PBS)
In the case of B3, the “increase of the melting temperature of RBD” value [2] is reported as about 10 degrees and the Kd [3] is reported as 10.6 nM.

B4: 71 (VHH)
VHH: QVQLVESGGGSVQAGGSLRLSCAASGNIQHIKYLGWFRQAPGREREGVAALMTRYGQTYYADSVKGRFTVSLDNAKNTVYLQMNSLKPEDTALYYCAAAHYGDNFPLAYQAYLYWGQGTQVTVS
B4: binds [1].

B5: 81 (VHH)
VHH: QVQLVESGGGSVQAGGSLRLSCAASGYIHRIEYLGWFRQAPGKEREGVAALSTISGNTYYADSVKGRFTVSLDNAKNTVYLQMNSLKPEDTALYYCAAARFGRAYPLHYYQYTYWGQGTQVTVS
B5: binds [1].

B6: 60 (VHH)
VHH: QVQLVESGGGLVQAGGSLRLSCAASGFPVVAWQMTWYRQAPGKEREWVAAIRSFGVSTHYADSVKGRFTISRDNAKNTVYLQMNSLKPEDTAVYYCNVKDWGYEYEGYDYWGQGTQVTVS
B6: binds [1].

B7: 88 (VHH)
VHH: QVQLVESGGGLVQAGGSLRLSCAASGFPVWAHHMLWYRQAPGKEREWVAAIASWGANTAYADSVKGRFTISRDNAKNTVYLQMNSLKPEDTAVYYCNVKDSGQYRENYDYWGQGTQVTVS
B7: binds [1].

B8: sybody 76 (Sb76) (VHH)
VHH: QVQLVESGGGLVQAGGSLRLSCAASSFPVDTYHMAWYRQAPGKEREWVAAIVSWGWRTYYADSVKGRFTISRDNAKNTVYLQMNSLKPEDTAVYYCNVKDIGAQEVHYDYWGQGTQVTVS
notes: as for B3
For B8, the Kd [3] was 58.1 nM.

B9: 64 (VHH)
VHH: QVQLVESGGGLVQAGGSLRLSCAASGFPVYNRYMLWYRQAPGKEREWVAAITSYGYHTTYADSVKGRFTISRDNAKNTVYLQMNSLKPEDTAVYYCNVKDYGQHQQVYDYWGQGTQVTVS
B9: binds [1].

B10: 63 (VHH)
VHH: QVQLVESGGGLVQAGGSLRLSCAASGFPVNAEIMFWYRQAPGKEREWVAAIKSAGTTTLYADSVKGRFTISRDNAKNTVYLQMNSLKPEDTAVYYCNVKDYGAQAHYYDYWGQGTQVTVS
B10: binds [1].

B11: 77 (VHH)
VHH: QVQLVESGGGSVQAGGSLRLSCAASGSISSITYLGWFRQAPAKSVRAVAALDTEQGETYYADSVKGRFTVSLDNAKNTVYLQMNSLKPEDTALYYCAAANQHGGYYPLDSAWYTYWGQGTQVTVS
B11: binds [1].

B12: 78 (VHH)
VHH: QVQLVESGGGSVQAGGSLRLSCAASGYIKSIKYLGWFRQAPGKEREGVAALMTRYGETYYADSVKGRFTVSLDNAKNTVYLQMNSLKPEDTALYYCAAANYGNNWPLTGVNYWYWGQGTQVTVS
B12: binds [1].

B13: sybody 95 (Sb95) (VHH)
VHH: B12 VHH with Y27N, K29Y, S30N, N100S, N103A, T108V, G109S, V110A, N111A, W113T
notes: as for B3
Binder B13 has a Kd [3] of 43.9 nM.

B14: 85 (VHH)
VHH: QVQLVESGGGSVQAGGSLRLSCAASGSISSITYLGWFRQAPGKEREGVAALVTSRGKTYYADSVKGRFTVSLDNAKNTVYLQMNSLKPEDTALYYCAAASWGYTWPLYTYDYWYWGQGTQVTVS
B14: binds [1].

B15: sybody 100 (Sb100) (VHH)
VHH: B14 VHH with R55D, K57R, S100N, T104S, T109Q, Y110T, D111E
notes: as for B3
B15 gave a Kd [3] of 38.7 nM.

B16: sybody 42 (Sb42) (VHH)
VHH: QVQLVESGGGLVQAGGSLRLSCAASGFPVYNTWMEWYRQAPGKEREWVAAITSWGFKTYYADSVKGRFTISRDNAKNTVYLQMNSLKPEDTAVYYCNVKDEGYTGYYYDYWGQGTQVTVS
notes: as for B3
Binder B16 has a Kd [3] of 5 nM.

B17: 86 (VHH)
VHH: QVQLVESGGGSVQAGGSLRLSCAASGTIASIIYLGWFRQAPGKEREGVAALNTWNGKTYYADSVKGRFTVSLDNAKNTVYLQMNSLKPEDTALYYCAAAYSGMWYPLSNEHYGYWGQGTQVTVS
B17: binds [1].

B18: 69 (VHH)
VHH: QVQLVESGGGSVQAGGSLRLSCAASGYISEISYLGWFRQAPGKEREGVAALITGWGHTYYADSVKGRFTVSLDNAKNTVYLQMNSLKPEDTALYYCAAAQTGAWYPLETYIYHYWGQGTQVTVS
B18: binds [1].

B19: 83 (VHH)
VHH: QVQLVESGGGSVQAGGSLRLSCAASGGITHIVYLGWFRQAPGKEREGVAALMTRWGTTYYADSVKGRFTVSLDNAKNTVYLQMNSLKPEDTALYYCAAAKYGQNFPLSYHAYRYWGQGTQVTVS
B19: binds [1].

B20: sybody 12 (Sb12) (VHH)
VHH: QVQLVESGGGLVQAGGSLRLSCAASGFPVQLYWMEWYRQAPGKEREWVAAITSDGDYTEYADSVKGRFTISRDNAKNTVYLQMNSLKPEDTAVYYCYVKVGEWYYGQGTQVTVS
notes: as for B3
Binder B20 has a Kd [3] of 24.2 nM.

B21: 62 (VHH)
VHH: QVQLVESGGGLVQAGGSLRLSCAASGFPVEQEHMYWYRQASGKEREWVAAIVSEGAYTAYADSVKGRFTISRDNAKNTVYLQMNSLKPEDTAVYYCNVKDWGGYQWYYDYWGQGTQVTVS
B21: binds [1].

B22: 67 (VHH)
VHH: B21 VHH with E30M, Q31W, E32A, Y35A, S41P, E54A, A59H, G103T, Q105N, W106S
B22: binds [1].

B23: 75 (VHH)
VHH: QVQLVESGGGSVQAGGSLRLSCAASGYINQIYYLGWFRQAPGKEREGVAALNTYQGQTYYADSVKGRFTVSLDNAKNTVYLQMNSLKPEDTALYYCAAARWGRDEPLYHYYYSYWGQGTQVTVS
B23: binds [1].

B24: 90 (VHH)
VHH: B23 VHH with Y27A, N52S, Y54K, Q55Y, Q57E, D104Q, E105Y, Y108T, H109F, Y110V
B24: binds [1].

B25: 94 (VHH)
VHH: B23 VHH with N29T, Q30M, Y32E, Y54H, Q55T, Q57G, D104Y, Y108H, H109Y, Y110A
B25: binds [1].

B26: 79 (VHH)
VHH: B23 VHH with N29H, Q30T, Y32E, N52Y, Y54L, Q55K, E105T, Y108H, H109Y, Y110Q
B26: binds [1].

B27: 84 (VHH)
VHH: QVQLVESGGGSVQAGGSLRLSCAASGYIKHIEYLGWFRQAPGKEREGVAALKTSSGSTYYADSVKGRFTVSLDNAKNTVYLQMNSLKPEDTALYYCAAARYGRSDPLHYHEYSYWGQGTQVTVS
B27: binds [1].

B28: 97 (VHH)
VHH: QVQLVESGGGSVQAGGSLRLSCAASGAISTIEYLGWFRQAPGREREGVAALYTERGYTYYADSVKGRFTVSLDNAKNTVYLQMNSLKPEDTALYYCAAARYGHAQAPLHYFWYGYWGQGTQVTVS
B28: binds [1].

B29: 68 (VHH)
VHH: QVQLVESGGGSVQAGGSLRLSCAASGTITNIGYLGWFRQAPGKEREGVAALKTYDGYTYYADSVKGRFTVSLDNAKNTVYLQMNSLKPEDTALYYCAAARHGRDEPLSYMYYSYWGQGTQVTVS
B29: binds [1].

B30: 73 (VHH)
VHH: B29 VHH with T27K, T29Y, N30Q, K52M, Y54T, D104E, E105R, S108H, M110W
B30: binds [1].

B31: 93 (VHH)
VHH: QVQLVESGGGSVQAGGSLRLSCAASGHIAQIEYLGWFRQAPGKEREGVAALSTNQGYTYYADSVKGRFTVSLDNAKNTVYLQMNSLKPEDTALYYCAAARWGRTYPLSYMAYTYWGQGTQVTVS
B31: binds [1].

B32: 82 (VHH)
VHH: QVQLVESGGGSVQAGGSLRLSCAASGTINSIHYLGWFRQAPGKEREGVAALDTYIGYTYYADSVKGRFTVSLDNAKNTVYLQMNSLKPEDTALYYCAAARWGRTSPLHWYYYTYWGQGTQVTVS
B32: binds [1].
